Publication PMC9300613 (2022)

Biological target: bovine brain αβ-tubulin (taxol-stabilised microtubules, dolastatin-induced rings or DARPin-capped free dimer … (bovine, UniProt Q6B856 1-445))
Assay: AMPPNP

bovine brain αβ-tubulin (taxol-stabilised microtubules, dolastatin-induced rings or DARPin-capped free dimer …, sequence (chain, as listed by the source, chain 1 of 2): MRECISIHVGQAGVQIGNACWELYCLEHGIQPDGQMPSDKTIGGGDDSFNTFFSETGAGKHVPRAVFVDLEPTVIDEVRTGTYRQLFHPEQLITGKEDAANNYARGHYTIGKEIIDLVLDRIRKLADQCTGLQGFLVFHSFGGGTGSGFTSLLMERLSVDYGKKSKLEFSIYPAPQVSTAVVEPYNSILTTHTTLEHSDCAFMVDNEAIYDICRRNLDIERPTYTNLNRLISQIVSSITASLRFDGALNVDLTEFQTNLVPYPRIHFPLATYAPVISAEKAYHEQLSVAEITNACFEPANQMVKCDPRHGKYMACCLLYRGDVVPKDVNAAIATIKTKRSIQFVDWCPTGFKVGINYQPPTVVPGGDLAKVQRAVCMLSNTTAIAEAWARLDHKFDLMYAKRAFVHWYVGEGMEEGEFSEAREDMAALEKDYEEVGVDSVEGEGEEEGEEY
bovine brain αβ-tubulin (taxol-stabilised microtubules, dolastatin-induced rings or DARPin-capped free dimer …, sequence (Q6B856 whole entry, chain 2 of 2): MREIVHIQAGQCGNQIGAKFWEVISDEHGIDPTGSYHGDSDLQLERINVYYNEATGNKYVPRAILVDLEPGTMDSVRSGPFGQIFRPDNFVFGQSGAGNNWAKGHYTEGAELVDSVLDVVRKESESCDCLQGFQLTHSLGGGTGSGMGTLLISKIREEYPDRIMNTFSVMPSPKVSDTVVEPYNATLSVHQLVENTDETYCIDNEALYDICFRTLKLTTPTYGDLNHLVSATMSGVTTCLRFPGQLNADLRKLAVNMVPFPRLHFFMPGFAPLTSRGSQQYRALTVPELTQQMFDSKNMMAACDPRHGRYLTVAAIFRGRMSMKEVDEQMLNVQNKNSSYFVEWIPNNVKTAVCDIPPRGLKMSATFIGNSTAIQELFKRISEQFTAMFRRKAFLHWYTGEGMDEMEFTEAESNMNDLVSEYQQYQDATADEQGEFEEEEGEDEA

Binder	Kd
CaKip3-MDN (Candida albicans Kip3 motor domain and slightly truncated neck-linker, residues 1-436) (domain or fragment) MSYPNSLGSPATVTSTSVPTAKQSSISVAVRVRPFTEAESNRLVKIDNDDVFLGDGCLTSDNNNNNNNSNSNGNGNGNGSSAANSSGASTSRRAIFNTLGGLRKIINVVDDRMLIFDPPETNPLTKMQRNAFPNSFKGSRIREHRFVFDRLFDEDCTQDQVYRNTTQPLLDSVLDGYNATVFAYGATGCGKTHTISGTPEDPGVIFLTMKELYNRIEELKDTKIIDISLSYLEIYNETIRDLLNPMTQCKNLVIREDANNKISVSNLSRHRPNSVEEVMQLILEGNKNRTCSPTEANATSSRSHAVLQINVIQKDRTGDITEEHTFATLSIIDLAGSERAAATKNRGARLNEGANINKSLLALGNCINALCDPRRRNHVPYRDSKLTRLLKFSLGGNCKTVMIVCVSPSSQHYDETLNTLKYADRAKEIKTKLIRN	43 nM
HsKHC-MDN (human kinesin-1 heavy chain KIF5B construct equivalent to CaKip3-MDN) (domain or fragment) MADLAECNIKVMCRFRPLNESEVNRGDKYIAKFQGEDTVVIASKPYAFDRVFQSSTSQEQVYNDCAKKIVKDVLEGYNGTIFAYGQTSSGKTHTMEGKLHDPEGMGIIPRIVQDIFNYIYSMDENLEFHIKVSYFEIYLDKIRDLLDVSKTNLSVHEDKNRVPYVKGCTERFVCSPDEVMDTIDEGKSNRHVAVTNMNEHSSRSHSIFLINVKQENTQTEQKLSGKLYLVDLAGSEKVSKTGAEGAVLDEAKNINKSLSALGNVISALAEGSTYVPYRDSKMTRILQDSLGGNCRTTIVICCSPSSYNESETKSTLLFGQRAKTIKNTVCVN	350 nM
